# Laboratory results taken from patent US5876950.
# Assays:
# human gp39 (human) [1] = biological target: human gp39 (human) (UniProt P29965)
# human gp39 (human) [2] = biological target: human gp39 (human) (UniProt P29965); remark: listed apart in the source
# human gp39 (human) [3] = biological target: human gp39 (human) (UniProt P29965); remark: listed apart in the source
# [4] = biological target: gp39-CD8 fusion protein mutant E129/A (murine; human); test: ELISA on captured mutant gp39-CD8
# [5] = biological target: gp39-CD8 fusion protein mutant F201/A-E202/A (murine; human); test: ELISA on captured mutant gp39-CD8
# [6] = biological target: gp39-CD8 fusion protein mutant K143/A (murine; human); test: ELISA on captured mutant gp39-CD8
# [7] = biological target: gp39-CD8 fusion protein mutant N180/A (murine; human); test: ELISA on captured mutant gp39-CD8
# [8] = biological target: gp39-CD8 fusion protein mutant S131/A-T135/A (murine; human); test: ELISA on captured mutant gp39-CD8
# [9] = biological target: gp39-CD8 fusion protein mutant Y145/A (murine; human); test: ELISA on captured mutant gp39-CD8
# human gp39 (human) [10] = biological target: human gp39 (human) (UniProt P29965); test: Scatchard transformation, BMS-10 Jurkat cells
# human gp39 (human) [11] = biological target: human gp39 (human) (UniProt P29965); test: saturation binding of iodinated protein to gp39+ BMS-10 Jurkat cells
# human gp39 (human) [12] = biological target: human gp39 (human) (UniProt P29965); test: saturation binding of radiolabeled protein to Jurkat cells constitutively expressing gp39
# Chain of human gp39 (human) (P29965 whole entry, the tested form may be a part): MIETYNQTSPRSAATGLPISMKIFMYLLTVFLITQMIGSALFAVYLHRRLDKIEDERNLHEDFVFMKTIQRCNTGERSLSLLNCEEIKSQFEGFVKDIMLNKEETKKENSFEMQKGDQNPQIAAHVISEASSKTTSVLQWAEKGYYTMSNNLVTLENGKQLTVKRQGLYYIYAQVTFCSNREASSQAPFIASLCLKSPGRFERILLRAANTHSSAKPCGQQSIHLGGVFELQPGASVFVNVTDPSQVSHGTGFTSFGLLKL
# Chain of gp39-CD8 fusion protein mutant N180/A (murine; human) (P01731 other isoform, or with tags, fused parts or gaps mutant): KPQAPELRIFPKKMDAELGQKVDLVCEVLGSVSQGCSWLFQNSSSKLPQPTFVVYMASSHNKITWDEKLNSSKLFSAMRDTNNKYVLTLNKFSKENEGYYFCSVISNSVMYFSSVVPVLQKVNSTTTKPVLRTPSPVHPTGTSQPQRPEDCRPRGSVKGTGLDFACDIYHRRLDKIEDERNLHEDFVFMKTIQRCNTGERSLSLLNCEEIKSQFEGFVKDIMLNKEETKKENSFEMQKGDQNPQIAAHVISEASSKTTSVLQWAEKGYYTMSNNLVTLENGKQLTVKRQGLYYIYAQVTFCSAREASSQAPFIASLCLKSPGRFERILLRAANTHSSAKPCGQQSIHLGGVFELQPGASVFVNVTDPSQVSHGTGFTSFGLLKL
# Chain of gp39-CD8 fusion protein mutant Y145/A (murine; human) (P01731 other isoform, or with tags, fused parts or gaps mutant): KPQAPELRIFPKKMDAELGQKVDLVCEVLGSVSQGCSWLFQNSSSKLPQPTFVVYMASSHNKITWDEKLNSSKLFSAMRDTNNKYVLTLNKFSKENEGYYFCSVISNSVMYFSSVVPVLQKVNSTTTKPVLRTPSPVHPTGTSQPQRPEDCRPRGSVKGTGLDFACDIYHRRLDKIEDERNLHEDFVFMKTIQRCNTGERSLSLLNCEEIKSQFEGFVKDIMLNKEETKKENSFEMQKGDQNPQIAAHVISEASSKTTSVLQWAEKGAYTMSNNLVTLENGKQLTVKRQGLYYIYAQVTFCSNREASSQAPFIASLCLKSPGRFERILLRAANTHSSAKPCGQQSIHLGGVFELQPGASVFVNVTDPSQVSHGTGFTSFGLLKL
# Chain of gp39-CD8 fusion protein mutant E129/A (murine; human) (P01731 other isoform, or with tags, fused parts or gaps mutant): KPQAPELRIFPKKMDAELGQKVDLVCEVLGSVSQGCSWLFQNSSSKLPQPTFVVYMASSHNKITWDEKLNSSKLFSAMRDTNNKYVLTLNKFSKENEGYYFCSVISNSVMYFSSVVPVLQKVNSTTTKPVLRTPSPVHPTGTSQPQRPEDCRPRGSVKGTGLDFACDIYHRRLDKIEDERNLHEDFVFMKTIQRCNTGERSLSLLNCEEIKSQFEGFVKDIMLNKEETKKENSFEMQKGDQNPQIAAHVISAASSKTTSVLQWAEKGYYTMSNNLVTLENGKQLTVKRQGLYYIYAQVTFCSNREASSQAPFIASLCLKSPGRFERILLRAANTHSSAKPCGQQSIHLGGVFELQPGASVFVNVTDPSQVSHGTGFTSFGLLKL
# Chain of gp39-CD8 fusion protein mutant S131/A-T135/A (murine; human) (P01731 other isoform, or with tags, fused parts or gaps mutant): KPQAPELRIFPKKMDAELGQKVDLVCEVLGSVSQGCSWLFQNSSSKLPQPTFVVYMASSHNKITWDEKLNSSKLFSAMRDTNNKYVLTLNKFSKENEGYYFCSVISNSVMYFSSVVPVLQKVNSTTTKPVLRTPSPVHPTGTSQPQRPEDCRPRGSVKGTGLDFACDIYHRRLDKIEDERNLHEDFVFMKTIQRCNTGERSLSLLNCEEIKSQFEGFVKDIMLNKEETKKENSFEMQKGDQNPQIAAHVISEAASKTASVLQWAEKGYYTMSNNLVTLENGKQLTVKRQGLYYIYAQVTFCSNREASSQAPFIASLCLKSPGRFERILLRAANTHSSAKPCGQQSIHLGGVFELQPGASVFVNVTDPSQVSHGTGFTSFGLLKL
"IgM produced, % of medium control (IgG in the next line) (% of medium control) (human gp39 (human) [1])","[3H]thymidine incorporation of B cells, % of medium control (% of medium control) (human gp39 (human) [1])","IgG synthesis by B cells at 20 µg/ml purified mAb, % of medium control (% of medium control) (human gp39 (human) [2])","IgG synthesis at 7.53 x 10^12 binding sites/ml, % of medium only control (% of medium only control) (human gp39 (human) [3])",binding relative to wild-type gp39 [4] [%],binding relative to wild-type gp39 [5] [%],binding relative to wild-type gp39 [6] [%],binding relative to wild-type gp39 [7] [%],binding relative to wild-type gp39 [8] [%],binding relative to wild-type gp39 [9] [%],sites per cell (sites per cell) (human gp39 (human) [10]),Kd (human gp39 (human) [11]) [nM],fold greater affinity than 106 sFv-Ig (human gp39 (human) [12]) [fold],Molecule
87.9,87.9,,,,,,,,,,,,negative control monoclonal antibody
13.9,3.3,17,12,70,112,5,93,89,106,,,,"monoclonal antibody 39-1.7 (antibody, V domains shown) VH: EVQLQQSGPELVKPGASVKMSCKASGYTFTDYYMKWVKQSHGKSLEWIGNINPNNGDTFFNQKFEGKATLTVDKSSSAAYMQLNSLTSEDSAVKKCARGPGTNYFDYWGQGTTLTVSS VL: DIVLTQSPVSLAVSLGQRVTISCRASQSVSSSTNSYMHWYQQKPGQPPKLLIKYASNLESGVPARFSGSGSGTDFTLNIHPVEEEDTATYYCQHSWEIPFTFGSGTKLEIRR"
17.9,2.9,8,11,130,9,52,144,113,124,10000,0.4,3,"monoclonal antibody 39-1.106 (antibody, V domains shown) VH: EVKLVESGGGLVKPGGSLKLSCTTSGFTFNNYAMSWVRQTPEKRLEWVASISSGDSTYYPDSVRGRFTISRDNARNILYLQMSSLRSEDTAMYYCARHYDYDSYAMDYWGQGTSVTVSS VL: DIQMTQSPASLSASVGETVTITCRASETIYSYLAWYQQKQGRSPQLLVYNAKTLAEGVPSRFSGSGSGTQFSLKINSLQPEDFGSYYCQHHYNTPLTFGTGTKLELKR"
